Laboratory results published in patent US20110202000A1 (MEDTRONIC, published 2011).
Numbering of substitutions follows the chain as printed. Blank lines part the entries; values can stand above or below the binder they belong to.

Columns and labels:
[1] = molecular target: T1, Abeta42 beta amyloid peptide (UniProt P05067 672-713); test: competition ELISA on coated beta amyloid, purified antibody (Table 4 experiment)
T1 construct: domain: Abeta42; also called Aβ42; beta amyloid (Covance)
Procedure: (§1) Binding of humanized variants were tested in the competition binding ELISA described in Example 1. Briefly, supernatants from the best expressing lines for each combination were quantified using an Fc capture, Kappa light chain detection ELISA in comparison to a IgG1/kappa standard. The quantified supernatants were then tested in a competition ELISA for binding to their target antigen, beta amyloid. 96 well maxisorb plates (Nunc-Fisher Scientific, Loughborough, UK) were coated overnight at 4° C. with 50 μl/well of 0.06125 μg/ml beta amyloid (Covance, UK) in carbonate buffer pH 9.6. […] The titrations, 50 μl/well, were added to washed (3× with PBS pH 7.4/0.5%BSA/0.05% Tween 20) assay plates and incubated at room temperature for 1 hour. […] After stopping the reaction with 50 μl/well 3M HCl, absorbance was measured at 450 nm and the binding curves of the test antibodies were compared to the mouse reference standard. Absorbance was plotted against sample concentration and straight lines were fitted through each of the data sets.
The purified antibodies were tested for binding to beta amyloid via competition ELISA as described above (n=2). […] Absorbance at 450 nm was measured and this was plotted against test antibody concentration.

[2] = molecular target: T1, Abeta42 beta amyloid peptide; test: competition ELISA on coated beta amyloid, NS0 supernatant; competitor biotinylated mouse 6E10
Procedure: 100 μl of the antibody mixes were transferred into the wells of Immulon Maxisorb plates precoated with 0.06125 μg/ml Abeta₄₂ beta amyloid peptide coated plates and incubated at room temperature for 1 hour. The plate was washed, and bound biotinylated mouse 6E10 was detected by adding a strepavidin-HRP conjugate (Sigma, Poole UK) (diluted at 1:500) and OPD substrate (Sigma, Poole UK). The assay was developed in the dark for 5 minutes before being stopped by the addition of 3M HCl. The assay plate was then read in a MRX TCII plate reader at absorbance 490 nm.
as §1, with “hour. Plates were washed as above and 100 μl/well of a 1/500 dilution of streptavidin HRP (Sigma, Poole, UK) in PBS pH 7.4/0.5% BSA/0.05% Tween was added and incubated for a further 1 hour at room temperature.” for “hour.”

[3] = molecular target: T1, Abeta42 beta amyloid peptide; test: competition ELISA on coated beta amyloid, purified antibody, n=2; competitor biotinylated chimeric mouse 6E10
Procedure: as §1, with “hour. Plates were washed as above and 100 μl/well of a 1/500 dilution of streptavidin HRP (Sigma, Poole, UK) in PBS pH 7.4/0.5% BSA/0.05% Tween was added and incubated for a further 1 hour at room temperature.” for “hour.”
The purified antibodies were tested for binding to beta amyloid via competition ELISA as described above (n=2). Titrations of the test antibodies were done from 0.003 μg/ml to 16 μg/ml in duplicate. Absorbance at 450 nm was measured and this was plotted against test antibody concentration.

Aβ40 peptide = molecular target: T2, Aβ40 peptide (UniProt P05067 672-711); test: western immunoblot of Aβ40 peptide, antibody at 1000-fold dilution
T2 construct: domain: Aβ40; also called amyloid beta
T2 sequence (P05067 672-711 limits assumed): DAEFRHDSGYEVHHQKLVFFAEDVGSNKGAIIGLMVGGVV
Procedure: (§2) The resulting conjugated antibodies (IgG and F(ab)₂ fragments) were subjected to dialysis to separate conjugated from unconjugated antibodies. The conjugated IgG antibodies were tested for their ability to bind amyloid beta (Aβ40 and Aβ42), using a western immunoblotting assay. In brief, Aβ40 or Aβ42 peptides (0.5 μg in diluent; Covance) were diluted in 4 μl nanopure water and prepared with 2× sample buffer to run through 4-20% Pierce Precise Protein Gel at 55V for 15 min, and then at 100V for 55 min. The proteins were then transferred onto 0.2 μm nitrocellulose membrane at 6V for 30 min. The membrane was blocked with a solution of dried milk powder (5% in Tris-buffered saline with Tween20; TBST, 1 L distilled water, 8 g NaCl, 2.4 g Tris, pH 7.5 with HCl, 1 mL Tween20). Membranes were then incubated overnight with a 1000-fold dilution of unconjugated or PSA-conjugated 6E10 IgG or F(ab′)₂ preparations, washed thrice with TBST for 5 min each, incubated with 1:2000 dilution of HRP-conjugated goat anti-mouse secondary antibody, and washed twice again with TBST for 10 min each. The chemiluminescent signal was developed with ECL-Plus reagent and the membranes were exposed to Kodak films to illustrate the bands.

[4] = molecular target: T1, Abeta42 beta amyloid peptide; test: western immunoblot of Aβ42 peptide, antibody at 1000-fold dilution
Procedure: as §2

T1 sequence (P05067 672-713 limits assumed): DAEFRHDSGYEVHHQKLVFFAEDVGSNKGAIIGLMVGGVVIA

B1: MDT-2007 (composite human antibody sequence variant VH4/VK2) (antibody, V domains shown)
VH: QVQLVQSGAEVKKPGASVKVSCTASGFNIKDTYIHWVRQARGQRLEWIGRFDPVNVNTRYDSRFRGRVTITSDASTNTAYMELSSLRSEDTAVYYCSRSYYNGRRRFTYWGQGTLVTVSS
VL: DIVMTQSPSSLTASVGDRVTITCKASQSLLSSGNQKNYLTWYQQKPGQPPKLLIYWASIRESGVPDRFTGSGSGTFFTLTISSLQAEDVAVYYCQNDYNYPFTFGQGTKLEIK
notes: Human IgG1/kappa (pANT15/pANT13)
fold increase in binding compared to the mouse reference [1]: 1.72 fold | fold difference in IC50 relative to mouse 6E10 (Binding Efficiencies Relative to Mouse MDT-2007) [2]: 0.67 fold | Fold Difference (IC50 normalized to the reference) [3]: 0.57 fold | IC50 [3]: 2.1 µg/mL

B2: chimeric 6E10 antibody (mouse 6E10 V regions, human IgG1/kappa constant regions) (antibody, V domains shown)
VH: EVQLQQSGAELVKPGASVKLSCTASGFNIKDTYIHWVKQRPEQGLEWIGRFDPVNVNTRYDSRFRGKATITSDASSNTAYLHLNSLTSEDTAVYYCSRSYYNGRRRFTYWGQGTLVTVSA
VL: B1 VL with A13V, S14T, V15A, D17E, R18K, T20A, I21L, L84V, V89L, Q106S
notes: also called chimeric mouse 6E10 antibody; chimeric antibody
Fold Difference (IC50 normalized to the reference) [3]: 1 fold | IC50 [3]: 3.6 µg/mL

B3: PSA-conjugated 6E10 IgG anti-Aβ antibody (antibody, V domains shown)
VH: B2 VH
VL: B1 VL with A13V, S14T, V15A, D17E, R18K, T20A, I21L, L84V, V89L, Q106S
modifications: polysialic acid (PSA) conjugated; site and chain not stated; polysialic acid (PSA, 30 to 90 sialic acid units) conjugated by periodate oxidation and sodium cyanoborohydride; site and chain not stated
notes: also called PSA-conjugated IgG anti-Aβ; conjugated IgG antibodies
binding result (Aβ40 peptide): binds | binding result [4]: binds

B10: composite human antibody variant VH1/VK1 (antibody, human IgG1, V domains shown)
VH: B1 VH with Q1E, V11L, R41P, V68A
VL: B1 VL with S9D, A13V, V15L, D17E, V19A, T22N
notes: Human IgG1/kappa (pANT15/pANT13); Tested as quantified NS0 supernatant
fold difference in IC50 relative to mouse 6E10 (Binding Efficiencies Relative to Mouse MDT-2007) [2]: 0.78 fold

B13: composite human antibody variant VH1/VK3 (antibody, human IgG1, V domains shown)
VH: B1 VH with Q1E, V11L, R41P, V68A
VL: B1 VL with T69S, F76D
notes: as for B10
fold difference in IC50 relative to mouse 6E10 (Binding Efficiencies Relative to Mouse MDT-2007) [2]: 1.93 fold

Next, values leading:

fold difference in IC50 relative to mouse 6E10 (Binding Efficiencies Relative to Mouse MDT-2007) [2]: 0.72 fold | Fold Difference (IC50 normalized to the reference) [3]: 0.72 fold | IC50 [3]: 2.6 µg/mL
B4: composite human antibody variant VH5/VK2 (antibody, human IgG1, V domains shown)
VH: B1 VH with N77S
VL: B1 VL
notes: as for B1

fold difference in IC50 relative to mouse 6E10 (Binding Efficiencies Relative to Mouse MDT-2007) [2]: 0.96 fold
B5: composite human antibody variant VH2/VK3 (antibody, human IgG1, V domains shown)
VH: B1 VH with Q1E, V68A
VL: B1 VL with T69S, F76D
notes: as for B10

fold difference in IC50 relative to mouse 6E10 (Binding Efficiencies Relative to Mouse MDT-2007) [2]: 1.02 fold
B6: composite human antibody variant VH5/VK3 (antibody, human IgG1, V domains shown)
VH: B1 VH with N77S
VL: B1 VL with T69S, F76D
notes: as for B10

fold difference in IC50 relative to mouse 6E10 (Binding Efficiencies Relative to Mouse MDT-2007) [2]: 1.57 fold
B7: composite human antibody variant VH3/VK3 (antibody, human IgG1, V domains shown)
VH: B1 VH with V68A
VL: B1 VL with T69S, F76D
notes: as for B10

fold difference in IC50 relative to mouse 6E10 (Binding Efficiencies Relative to Mouse MDT-2007) [2]: 0.8 fold | Fold Difference (IC50 normalized to the reference) [3]: 0.91 fold | IC50 [3]: 3.3 µg/mL
B8: composite human antibody variant VH5/VK1 (antibody, human IgG1, V domains shown)
VH: B1 VH with N77S
VL: B1 VL with S9D, A13V, V15L, D17E, V19A, T22N
notes: as for B1

fold difference in IC50 relative to mouse 6E10 (Binding Efficiencies Relative to Mouse MDT-2007) [2]: 0.94 fold | Fold Difference (IC50 normalized to the reference) [3]: 1.14 fold | IC50 [3]: 4.1 µg/mL
B9: composite human antibody variant VH4/VK1 (antibody, human IgG1, V domains shown)
VH: B1 VH
VL: B1 VL with S9D, A13V, V15L, D17E, V19A, T22N
notes: as for B1

fold difference in IC50 relative to mouse 6E10 (Binding Efficiencies Relative to Mouse MDT-2007) [2]: 1.36 fold
B11: composite human antibody variant VH4/VK3 (antibody, human IgG1, V domains shown)
VH: B1 VH
VL: B1 VL with T69S, F76D
notes: as for B10

fold difference in IC50 relative to mouse 6E10 (Binding Efficiencies Relative to Mouse MDT-2007) [2]: 1.1 fold
B12: composite human antibody variant VH2/VK2 (antibody, human IgG1, V domains shown)
VH: B1 VH with Q1E, V68A
VL: B1 VL
notes: as for B10
